Experimental data: patent US20140370037A1 (published 2014)

T1: human DLL3 antigen (human, UniProt Q9NYJ7 27-492, limits assumed)
T1 construct: also called immobilized human DLL3; recombinant human DLL3
T1 sequence (looked up): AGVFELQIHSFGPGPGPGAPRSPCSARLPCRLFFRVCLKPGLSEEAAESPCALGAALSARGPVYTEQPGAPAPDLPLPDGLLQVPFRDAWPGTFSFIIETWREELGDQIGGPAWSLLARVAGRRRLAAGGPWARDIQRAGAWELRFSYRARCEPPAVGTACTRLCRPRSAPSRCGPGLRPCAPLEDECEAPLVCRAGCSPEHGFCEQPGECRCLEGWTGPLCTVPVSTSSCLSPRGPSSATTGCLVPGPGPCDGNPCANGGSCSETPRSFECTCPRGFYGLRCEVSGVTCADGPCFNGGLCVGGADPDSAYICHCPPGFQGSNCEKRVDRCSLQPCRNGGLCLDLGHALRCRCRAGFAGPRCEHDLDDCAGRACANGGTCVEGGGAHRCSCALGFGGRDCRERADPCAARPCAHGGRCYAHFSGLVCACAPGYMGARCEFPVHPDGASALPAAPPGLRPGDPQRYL


target: T1, human DLL3 antigen; experiment: ELISA or flow cytometry screen

Row | binding result | Binder
1 | binds | SC16.142 (antibody, V domains shown, murine mAb) VH: EVQLQQSGPELVKPGASVKISCKASGYTFTDYNMHWVKQSHGKSLEWIGFFYPYNGNTVYSQKFKSKATLTVDNSSSTAYMELRSLTSEDSAVYYCARLNWEGYWGQGTTLTVSS VL: DIKMTQSPSSMYASLGERVTITCKASQDINNYLSWFQQKPGKSPKTLIYRANRLVDGVPSRFSGSGSGQDYSLTISSLEYEDMGIYYCLQYDEFPYTFGGGTKLEIKR
2 | binds | SC16.135 (antibody, V domains shown, murine mAb) VH: QVQLQQSGAELVRPGTSVKVSCKASGYAFTNYLIEWVKQRPGQGLEWIGVINPGSGGTNSNEKFKAKATLTADKSSSTAYMQLSSLTSADSAVYFCARSDYDYAFYAMDYWGQGTSVTVSS VL: DIKMTQSPSSMYASLGERVTITCKASQDINRYLSWFQQKPGKSPKTLIYRANRLVDGVPSRFSGSGSGQDYSLTISSLEYEDMGIYYCLQYDEFPFTFGSGTKLEIK
3 | binds | SC16.141 (antibody, V domains shown, murine mAb) VH: QVQLKQSGPGLVAPSQSLFITCTVSGFSLTSYEINWVRQPPGKGLEWLGVIWTGGSTNYNSALISRLSISKDNSKSLVFLKMNSLQTDDTAIYYCVRGVYAMDYWGQGTSVTVSS VL: DIKMTQSPSSMYASLGERVTITCKASQDINSYLSWFQQKPGKSPKTLIYRANRLVDGVPSRFSGSGSGQDYSLTISSLEYEDMGIYYCLQYDEFPFTFGSGTKLEIK
4 | binds | SC16.137 (antibody, V domains shown, murine mAb) VH: EVQLVESGGDLVKPGGSLKLSCAASGFTFSSYGMSWVRQTPDKRLEWVATISSGGSYTYYPDSVKGRFTISRDNAKNTLYLQMSSLKSEDTAMYYCARRRADAMDYWGQGTSVTVSS VL: QIVLTQSPAIMSASLGEEITLTCSASSSVSYMHWYQQKSGTSPKLLIYSTSNLASGVPSRFSGSGSGTFYSLTISSVEAEDAADYYCHQWSSYHTFGGGTKLEIKR
5 | binds | SC16.140 (antibody, V domains shown, murine mAb) VH: QVQLQQSGPELVRPGASVKMSCKASGYTFTSYWMHWVKQRPGQGLEWIGMIDPSNSETRLNQKFKDKATLNVDKSSNTAYMQLSSLTSEDSAVYYCAVMDYYFDYWGQGTTLTVSS VL: DIVLTQSLASLAVSLGQRATISCRASKSVSTSGYSYMHWYQQKPGQPPKLLIYLASNLESGVPARFSGSGSGTDFTLNIHPVEDEDAATYYCQHSRELPFTFGGGTKLEIKR
6 | binds | SC16.13 (antibody, V domains shown, murine mAb) VH: QVTLKESGPGILQPSQTLSLTCSFSGFSLSTSGMGVGWIRQPSGKGLEWLAHIWWDDVKRYNPALKSRLTISKDTSSSQVFLKIASVDTADTATYYCARIVSFDNDVVSAMDYWGQGTSVTVSS VL: QIVLTQSPALVSASPGEKVTMTCSASSSVSYMYWYQQKPRSSPKPWIYLTSNLASGVPARFSGSGSGTSYSLTISSMEAEDAATYYCQQWRSNPFTFGSGTKLEIK
7 | binds | SC16.148 (antibody, V domains shown, murine mAb) VH: QIQLVQSGPELKKPGETVKISCKASGYTLTNYGMNWVKQAPGKGLKWMGWINTYTGEPTYADDFKGRFAFSLETSARIVYLQINNLKNEDTATYFCAKYEAHEGFVYWGQGTLVTVSA VL: QIVLTQSPAIMSASPGEKVTMTCSASSSVSYMYWYQQKPGSSPRLLIYDTSNLASGVPVRFSGSGSGTSYSLTISRMEAEDTATYYCQEWSNNPLTFGDGTKLELK
8 | binds | SC16.130 (antibody, V domains shown, murine mAb) VH: EVQLQQSGPELVKPGASVKMSCKASGYTFTSYVMHWVKQKPGQGLEWIGYINPYNDGTEYNEKFKGKATLTSDKSSSTAYMELSSLTSEDSAVYYCARGVYDGYSYFDYWGQGTTLTVSS VL: DIQLTQSPASLSASVGETVTITCRASGSIHNYLAWYQQKQGKSPQLLVYNAKTLVDGVPSRFSGSGSGTQYSLKINSLQPEDFGYYYCQHFWTTPWTFGGGTKLEIK
9 | binds | SC16.136 (antibody, V domains shown, murine mAb) VH: EFQLQQSGPELVKPGASVKMSCKASGYTFTSYVMHWVKQKPGQGLEWIGYINPYNDGTKYNEKFKGKATLTSDKSSSTAYMELSSLTSEDSAVYYCARDRSGYEDYYGMDYWGQGTSVTVSS VL: DIQMTQSPASLSASVGETVTITCRASGNIHNYLAWYQQKQGKSPHLLVYNAKTLADGVPSRFSGSGSGTQYSLKINSLQPEDFGSYYCQHFWSTPWTFGGGTKLEIK
10 | binds | SC16.125 (antibody, V domains shown, murine mAb) VH: DVQLQESGPDLVKPSQSLSLTCTVTGYSITSGYSWHWIRQFPGNKLEWMGYIHYSGSTNYNPSLKSRISITRDTSKNQFFLQFKSVTTEDSATYYCALEGNYDGFAYWGQGTLVTVS VL: DIQMNQSPSSLSASLGDTITITCHASQNINVWLSWYQQKPGNIPKLLIYKASILHTGVPSRFSGSGSGTGFTLTISSLQPEDIATYSCQQGQSYPYTFGGGTKLEIK
11 | binds | SC16.126 (antibody, V domains shown, murine mAb) VH: QVQMKESGPGLVAPSQSLSITCTVSGSSLTNYGVHWVRQPPGKGLEWLGVIWAGGSTNYNSALMSRLSISKDNSKSQVFLKMNSLQTDDTAMYYCARDWEGWFAYWGQGTLVTVSA VL: DIQMNQSPSSLSASLGDTITITCHASQNINVWLSWYQQKPGNIPKLLIYKASNLHTGVPSRFSGSGSGTGFTLTISSLQPEDIATYYCQQGQSYPFTFGSGTKLEIK
12 | binds | SC16.149 (antibody, V domains shown, murine mAb) VH: QVQLKESGPGLVAPSQSLSITCAVSGFSLTSFGVHWVRQPPGKGLEWLGVIWAGGSTNYYSALMSRLSISIDNSKSQVFLKMNSLQTDDTAMYYCARDWEGWFAYWGQGTLVTVSA VL: DIQMNQSPSSLSASLGDTITITCHASQNINVWLSWYQQKPGNIPKLLIYKASHLHTGVPSRLSGSGSGTGFTLTISSLQPEDIATYYCQQGQSYPFTFGSGTTLEIK
13 | binds | SC16.143 (antibody, V domains shown, murine mAb) VH: QVQLQQSGPELVKPGASVRISCKASGYTFTSYYIHWVKQRPGQGLEWIGWIYPGNGNTKYNEKFKGKATLTADKSSSTAYMQISSLTSEDSAVYFCARERWLLLWFAYWGQGTLVTVSA VL: DVLMTQTPLSLPVSLGDQASISCRSSQSIVHSNGNTYLEWYLQKPGQSPKLLIYKVSNRFSGVPDRFSGSGSGTDFTLKISRVEAEDLGVYYCFQGSHVPLTFGAGTKLELK
14 | binds | SC16.124 (antibody, V domains shown, murine mAb) VH: EVQLQQSGPELVKPGASVKMSCKASGYTFTSYVMHWVKQKPGQGLEWIGYINPYNDGTKYNEKFKGKATLTSDKSSSTAYMELSSLTSEDSAVYYCARGALYYGNYLGYFDVWGAGTTVTVSS VL: DIQMTQSPASQSASLGESVTITCLASQTIGTWLAWYQQKPGKSPQLLISAATSLADGVPSRFSGSGSGTKFSFKISSLQAEDFVSYYCQQLYSTPWTFGGGTKLEIK
15 | binds | SC16.132 (antibody, V domains shown, murine mAb) VH: QVQLKESGPGLVAPSQSLSITCTVSGFSLTDYGVSWIRQPPGKGLEWLGVVWGGGSTYYNSALKSRLSITKDNSKSQVFLKMNSLQTDDTAMYYCAKQRGQYGAYWGQGTLVTVSA VL: DIQMTQSPASQSASLGESVTITCLASQTIGTWLAWYQQKPGKSPQLLIYAATSLADGVPSRFSGSGSGTKFSFKISSLQAEDFVSYYCQQLYSTPWTFGGGTKLEIK
16 | binds | SC16.138 (antibody, V domains shown, murine mAb) VH: QVQLKESGPGLVAPSQSLSITCTVSGFSLTDYGVSWIRQPPGKGLEWLGVVWGGGSTYYNSALKSRLSISKDNSKSQVFLKMNSLQTDDTAMYYCAKQRGQYGAYWGQGTLVTVSA VL: DIQMTQSPASQSASLGESVTITCLASQTIGTWLAWYQQKPGKSPQLLIYSATSLADGVPSRFSGSGSGTKFSFKISSLQAEDFVSYYCQQLYSTPWTFGGGTKLEIK
17 | binds | SC16.147 (antibody, V domains shown, murine mAb) VH: QIQLVQSGPELTKPGETVKISCKASGYTFTDYSLHWVKQALGKGLKWMGWINTETGEPAYADDFKGRFAFSLETSASTAYLQINDLKNEDTTTYFCGIYDGYAMDYWGQGTSVTVSS VL: DIQMTQTASSLSASLGDRVTISCRASQDINNYLNWYQQKPDGTVKLLIYYTSRLHSGVPSRFSGSGSGTDYSLTISILEQEDIATYFCQQGDTLPWTFGGGTKLEIK
18 | binds | SC16.133 (antibody, V domains shown, murine mAb) VH: QVQLKESGPGLVAPSQSLSITCTVSGFSLTNYAVHWVRQSPGKGLEWLGVIWSDGSTDYNAAFISRLSISKDNSKSQVFFKMNSLQADDTAMYYCARKKGGWFPWFAYWGQGTLVTVSA VL: SIVMTQTPKFLLVSAGDRVTITCKASQSVSNDVAWYQQKPGQSPKLLIYCASNRYTGVPDRFTGSGYGTDFTFTISTVQAEDLAVYFCQQDYSSPLTFGAGTKLELK
19 | binds | SC16.144 (antibody, V domains shown, murine mAb) VH: QIQLVQSGPELKKPGETVKISCKASGYTFTNYGMNWVKQAPGKGLKWVGWINTYTGEPTYADDFKGRFAFSLETSASTAYLQIDNLKNEDTATYFCARVGDYVGFDYWGQGTTLTVSS VL: SIVMTQTPKFLLVSAGDRVTITCKASQSVSNDVGWYQQKPGQSPKLLIYYASNRYNGVPDRFTGSGYGTDFTFTISTVQAEDLAVYFCQQDYSSPWTFGGGTKLEIK

target: T1, human DLL3 antigen; experiment: SPR, Biacore 2000, human DLL3 antigen
Description: Various methods were used to analyze the binding and immunochemical characteristics of selected DLL3 modulators generated as set forth above. […] Affinities and kinetic constants kₒₙ and koff of the selected modulators were measured using bio-layer interferometry analysis on a ForteBio RED (ForteBio, Inc.) or surface plasmon resonance using a Biacore 2000 each according to the manufacturer's instructions.
In this respect the humanized constructs (CDR grafted) were compared with “traditional” chimeric antibodies comprising the murine parent (or donor) heavy and light chain variable domains and a human constant region substantially equivalent to that used in the humanized constructs. With these constructs surface plasmon resonance (SPR) was conducted using a Biacore 2000 (GE Healthcare) to identify any subtle changes in rate constants brought about by the humanization process.

Row | binding result | Binder
20 | binds | hSC16.13 (antibody, V domains shown, humanized (CDR grafted)) VH: QITLKESGPTLVKPTQTLTLTCTFSGFSLSTSGMGVGWIRQPPGKALEWLAHIWWDDVKRYSPSLKSRLTITKDTSKNQVVLTMTNMDPVDTATYYCARIVSFDNDVVSAMDYWGQGTLVTVSS VL: DIQMTQSPSSLSASVGDRVTITCSASSSVSYMYWYQQKPGKAPKLLIYLTSNLASGVPSRFSGSGSGTDFTLTISSLQPEDFATYYCQQWRSNPFTFGQGTKLEIKR
